16 molecules from PMC7491322, “Molecular basis for the distinct cellular functions of the Lsm1–7 and Lsm2–8 complexes” can be followed below.

Data set [1] addresses T1, Lsm1Δ56C-7 (Schizosaccharomyces pombe, UniProt P87173;O94408;Q9Y7M4;O14352;O42978;Q9UUI1;O74499 …). Nature of the data set: X-ray crystallography; 2.1 Å; FP: 100 mM NaCl, 20 mM Tris pH 8.2 (final ~8), 10 mM MgCl2, 1 mM TCEP, 1 mM Na azide, 0.1 mg/mL each tRNA, BSA and heparin; temperature not stated; 1 nM RNA final; Hill fixed at 1. Conditions: protein: recombinant; tags: as P2; copies: 1;1;1;1;1;1;1; single-stranded.

In data set [2] the target is T2, Lsm2-8 (Schizosaccharomyces pombe, UniProt O94408;Q9Y7M4;O14352;O42978;Q9UUI1;O74499;O74483 …). Briefly: fluorescence polarization; FP: 100 mM NaCl, 20 mM Tris pH 8.2 (final ~8), 10 mM MgCl2, 1 mM TCEP, 1 mM Na azide, 0.1 mg/mL each tRNA, BSA and heparin; temperature not stated; 1 nM RNA final; Hill fixed at 1. Conditions: protein: recombinant; tags: Lsm4 C-term strep-II; Lsm7 C-term His6; GST (Lsm3) and MBP (Lsm6) with TEV sites, TEV treated; copies: 1;1;1;1;1;1;1; label: 5'-FAM; single-stranded. On the technique in general: Polarisation of emitted light reports the rotation of a fluorescent probe.

Data set [3] concerns the target T3, Lsm1-7 (Schizosaccharomyces pombe, UniProt P87173;O94408;Q9Y7M4;O14352;O42978;Q9UUI1;O74499 …). Described as above. Conditions: protein: recombinant, tags: Lsm4 C-term strep-II (as for Lsm2-8), Lsm7 untagged, GST (Lsm3) and MBP (Lsm6) with TEV sites, TEV treated, copies: 1;1;1;1;1;1;1, label: 5'-FAM.
Data set [4] deals with T1, Lsm1Δ56C-7. Described as above. Conditions: protein: recombinant, tags: as P2, copies: 1;1;1;1;1;1;1, label: 5'-FAM.
In data set [5] the target is Lsm1-7 (Lsm5 N66A/N68A) (Schizosaccharomyces pombe, UniProt P87173;O94408;Q9Y7M4;O14352;O42978;Q9UUI1;O74499 …, N66A;N68A;Lsm5). The data set is described as above. Conditions: protein: recombinant; tags: as P2; copies: 1;1;1;1;1;1;1; label: 5'-FAM; single-stranded.
Data set [6] deals with T3, Lsm1-7. The data set is described as above. Conditions: protein: recombinant; tags: Lsm4 C-term strep-II (as for Lsm2-8); Lsm7 untagged; GST (Lsm3) and MBP (Lsm6) with TEV sites, TEV treated; copies: 1;1;1;1;1;1;1; label: 5'-FAM; single-stranded.
Data set [7] concerns the target T2, Lsm2-8. Briefly: X-ray crystallography; 1.9 Å; FP: 100 mM NaCl, 20 mM Tris pH 8.2 (final ~8), 10 mM MgCl2, 1 mM TCEP, 1 mM Na azide, 0.1 mg/mL each tRNA, BSA and heparin; temperature not stated; 1 nM RNA final; Hill fixed at 1. Conditions: protein: recombinant; tags: Lsm4 C-term strep-II; Lsm7 C-term His6; GST (Lsm3) and MBP (Lsm6) with TEV sites, TEV treated; copies: 1;1;1;1;1;1;1; single-stranded.

In data set [8] the target is T2, Lsm2-8. Briefly: X-ray crystallography; 2.3 Å; FP: 100 mM NaCl, 20 mM Tris pH 8.2 (final ~8), 10 mM MgCl2, 1 mM TCEP, 1 mM Na azide, 0.1 mg/mL each tRNA, BSA and heparin; temperature not stated; 1 nM RNA final; Hill fixed at 1. Conditions: protein: recombinant; tags: Lsm4 C-term strep-II; Lsm7 C-term His6; GST (Lsm3) and MBP (Lsm6) with TEV sites, TEV treated; copies: 1;1;1;1;1;1;1; single-stranded.

Data set [9] concerns the target T1, Lsm1Δ56C-7. Briefly: X-ray crystallography; 1.8 Å; FP: 100 mM NaCl, 20 mM Tris pH 8.2 (final ~8), 10 mM MgCl2, 1 mM TCEP, 1 mM Na azide, 0.1 mg/mL each tRNA, BSA and heparin; temperature not stated; 1 nM RNA final; Hill fixed at 1. Conditions: protein: recombinant; tags: as P2; copies: 1;1;1;1;1;1;1; single-stranded.
The mark [10] stands for this setting: 5' hairpin, single-stranded 3' end.

With AUUUUG (ssRNA), the binding result in data set [1] is on record as “binds”.

For orientation: Kd means the constant that tells how readily two partners part at equilibrium. For ACCCAUUUUU (ssRNA, 3' phosphate) [U6 3' tail, 3' phosphate], in data set [2], the Kd is 152 nM.

Take UUUUUUUUUUUUUAA (ssRNA) [U13AA]: the binding result in data set [3] (single-stranded) was “binds”.

Regarding ACCCAUUUUU (ssRNA, 2',3' cyclic phosphate) [U6 3' tail, 2',3' cyclic phosphate], the Kd in data set [2] is 26 nM.

Consider CCCCCUUUUUA (ssRNA), for which the values for the Kd in data set [4] (single-stranded) and in data set [3] (single-stranded) were 13 nM and 29.7 nM, respectively.

Turning to ACCCAUUUUU (ssRNA, 2',3' cyclic phosphate) [cyclic phosphate oligoU RNA (Lsm1-7 assays)], the binding signal in data set [5] was ~7 fold weaker than adenosine-terminated RNA; in data set [6], around 14 fold weaker than N4.

Regarding UUUUU (ssRNA) [UUUUU-3'-OH], the binding result in data set [7] was “binds”.

Consider AAAAAAAAAAAAAAA (ssRNA) [A15], for which, in data set [4] (single-stranded), the binding result was “no binding”.

In the case of UUUUUUUUUUUUUUA (ssRNA) [U14A], the binding result in data set [3] (single-stranded) is recorded as “binds”.

As to UUUUU (ssRNA, 2',3' cyclic phosphate) [UUUUU>p], the binding result in [8] is reported as “binds”.

As to GGCACUUCGGUGCCCCCCAUUUUA (structured_RNA) [5' stem-loop RNA with UUUUA site], the values for the Kd in [4] (setting [10]) and in data set [3] (setting [10]) were 32 nM and 70 nM, respectively.

For UUUUUUUUUUUUUUU (ssRNA) [U15], the binding result in data set [3] (single-stranded) is “binds”.

ACCCAUUUUUA (ssRNA) [3' monoadenylated oligoU RNA]: the binding result in data set [2] is “binds”.

As for UUUUUA (ssRNA), the binding result in [9] is given as “binds”.

Consider ACCCAUUUUU (ssRNA) [U6 3' tail, 3'-OH], for which, in [2], the Kd amounted to 100 nM.

Turning to UUUUUACCCCC (ssRNA), the Kd in [4] (single-stranded) came out at 34 nM; in data set [3] (single-stranded) it was 189 nM.
